Reference: IntAct's records for PubMed 24910198

B1: TIMELESS-interacting protein (Homo sapiens), Q9BVW5 (parent)
chain: MLEPQENGVIDLPDYEHVEDETFPPFPPPASPERQDGEGTEPDEESGNGAPVRVPPKRTVKRNIPKLDAQRLISERGLPALRHVFDKAKFKGKGHEAEDLKMLIRHMEHWAHRLFPKLQFEDFIDRVEYLGSKKEVQTCLKRIRLDLPILHEDFVSNNDEVAENNEHDVTSTELDPFLTNLSESEMFASELSRSLTEEQQQRIERNKQLALERRQAKLLSNSQTLGNDMLMNTPRAHTVEEVNTDEDQKEESNGLNEDILDNPCNDAIANTLNEEETLLDQSFKNVQQQLDATSRNITEAR
B2: SWI/SNF-related matrix-associated actin-dependent regulator of chromatin subfamily A-like protein 1 (Homo sapiens), Q9NZC9 (parent)
chain: MSLPLTEEQRKKIEENRQKALARRAEKLLAEQHQRTSSGTSIAGNPFQAKQGPSQNFPRESCKPVSHGVIFKQQNLSSSSNADQRPHDSHSFQAKGIWKKPEEMPTACPGHSPRSQMALTGISPPLAQSPPEVPKQQLLSYELGQGHAQASPEIRFTPFANPTHKPLAKPKSSQETPAHSSGQPPRDAKLEAKTAKASPSGQNISYIHSSSESVTPRTEGRLQQKSGSSVQKGVNSQKGKCVRNGDRFQVLIGYNAELIAVFKTLPSKNYDPDTKTWNFSMNDYSALMKAAQSLPTVNLQPLEWAYGSSESPSTSSEGQAGLPSAPSLSFVKGRCMLISRAYFEADISYSQDLIALFKQMDSRRYDVKTRKWSFLLEEHSKLIAKVRCLPQVQLDPLPTTLTLAFASQLKKTSLSLTPDVPEADLSEVDPKLVSNLMPFQRAGVNFAIAKGGRLLLADDMGLGKTIQAICIAAFYRKEWPLLVVVPSSVRFTWEQAFLRWLPSLSPDCINVVVTGKDRLTAGLINIVSFDLLSKLEKQLKTPFKVVIIDESHFLKNSRTARCRAAMPVLKVAKRVILLSGTPAMSRPAELYTQIIAVKPTFFPQFHAFGLRYCDAKRMPWGWDYSGSSNLGELKLLLEEAVMLRRLKSDVLSQLPAKQRKIVVIAPGRINARTRAALDAAAKEMTTKDKTKQQQKDALILFFNRTAEAKIPSVIEYILDLLESGREKFLVFAHHKVVLDAITQELERKHVQHIRIDGSTSSAEREDLCQQFQLSERHAVAVLSITAANMGLTFSSADLVVFAELFWNPGVLIQAEDRVHRIGQTSSVGIHYLVAKGTADDYLWPLIQEKIKVLAEAGLSETNFSEMTESTDYLYKDPKQQKIYDLFQKSFEKEGSDMELLEAAESFDPGSASGTSGSSSQNMGDTLDESSLTASPQKKRRFEFFDNWDSFTSPL

Variants of: B1
Conditions: with rfa2_human RPA2, P15927
Target sequence in this assay (P15927 whole entry): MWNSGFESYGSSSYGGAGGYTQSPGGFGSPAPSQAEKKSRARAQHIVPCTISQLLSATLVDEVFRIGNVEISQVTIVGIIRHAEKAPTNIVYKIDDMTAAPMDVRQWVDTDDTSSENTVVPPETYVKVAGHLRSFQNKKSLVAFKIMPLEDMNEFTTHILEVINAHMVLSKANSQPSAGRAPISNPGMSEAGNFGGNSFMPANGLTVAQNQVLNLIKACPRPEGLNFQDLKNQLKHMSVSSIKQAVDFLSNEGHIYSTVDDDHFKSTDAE

| Variant | effect of a mutation on the interaction |
| --- | --- |
| MLEPQENGVIDLPDYEHVEDETFPPFPPPASPERQDGEGTEPDEESGNGAPVRVPPKRTVKRNIPKLDAQRLISERGLPALRHVFDKAKFKGKGHEAEDLKMLIRHMEHWAHRLFPKLQFEDFIDRVEYLGSKKEVQTCLKRIRLDLPILHEDFVSNNDEVAENNEHDVTSTELDPFLTNLSESEMFASELSRSATEEQQQRIERNKQLALERRQAKLLSNSQTLGNDMLMNTPRAHTVEEVNTDEDQKEESNGLNEDILDNPCNDAIANTLNEEETLLDQSFKNVQQQLDATSRNITEAR [L195A] | decreasing interaction |

Variants of: B2
Conditions: with rfa2_human RPA2, P15927
Target sequence in this assay (P15927 whole entry): as the sequence (P15927 whole entry) above

| Variant | effect of a mutation on the interaction |
| --- | --- |
| R17A;Q18A;K19A | decreasing interaction |

Variants of: B2
Conditions: with rfa2_human RPA2, P15927
Remark: another data set of the same source
Target sequence in this assay (P15927 whole entry): as the sequence (P15927 whole entry) above

| Variant | effect of a mutation on the interaction |
| --- | --- |
| A20S;L21S | decreasing interaction |

Variants of: B2
Conditions: with rfa2_human RPA2, P15927
Remark: another data set of the same source
Target sequence in this assay (P15927 whole entry): as the sequence (P15927 whole entry) above

| Variant | effect of a mutation on the interaction |
| --- | --- |
| N16A;R17A | decreasing interaction |

Variants of: B2
Conditions: with rfa2_human RPA2, P15927
Remark: another data set of the same source
Target sequence in this assay (P15927 whole entry): as the sequence (P15927 whole entry) above

| Variant | effect of a mutation on the interaction |
| --- | --- |
| K12A;I13A | decreasing interaction |

Variants of: B2
Conditions: with rfa2_human RPA2, P15927
Remark: another data set of the same source
Target sequence in this assay (P15927 whole entry): as the sequence (P15927 whole entry) above

| Variant | effect of a mutation on the interaction |
| --- | --- |
| Q9A | decreasing interaction |

Variants of: B2
Conditions: with rfa2_human RPA2, P15927
Remark: another data set of the same source

| Variant | effect of a mutation on the interaction |
| --- | --- |
| L5A | decreasing interaction |

Variants of: B2
Conditions: with rfa2_human RPA2, P15927
Remark: another data set of the same source

| Variant | effect of a mutation on the interaction |
| --- | --- |
| K27A | decreasing interaction |
